Results published in patent publication US20210292393A1 (published 2021).
Where a chain is given by its changes, count along the chain named.

B1: antibody 331 (antibody, V domains shown)
V domain 1: QITLKESGPTLVKPTETLTLTCSFSGFSLTKTGEAAGWIRQAPGRALEWVTVIFWDDDKRYSPSLQNRISVTKDTSKNQVVLRMTNVARFDTGTYFCWAMGGPGKEYFGQGTLVAVSS
V domain 2: QSVLTQPPSVSGAPGQRVTISCTGTSSSIGPYSDVHWYQHVSGKAPRLLIFGNSNRPSGVPDRFSGSKSGTSASLVIAGLQAEDEADYYCQSYDSSLGEIYVFGTGTTVTVL
B2: antibody 368 (antibody, V domains shown)
V domain 1: QITLKESGPTLVKPTETLTLTCAFSGFSLTKTGEAAGWIRQAPGRALEWVTVIFWDDDKRYSPSLQNRLTVTKDTSKNVVVLTMTNVDPVDTATYFCWAMGGPGKEFFGQGTRVAVSS
V domain 2: B1 V domain 2 with I20V, V41I, S42P, N53T, D62A, T71S
B3: antibody 339 (antibody, V domains shown)
V domain 1: B1 V domain 1 with K31R, N67S, I69L, S70T, R83T, G93A, L113Q
V domain 2: B1 V domain 2
B4: antibody 366 (antibody, V domains shown)
VH: QVQLVESGGGVVQPGRSLRLSCAASGFTFSSYAMHWVRQAPGKGLEWVAVISYDGSNKYYADSVKGRFTISRDNSKNTLYLQMNSLRAEDTAVYYCARGLVGYNWFDPWGQGTLVTVSS
VL: DIQMTQSPSSVSASVGDRVTITCRASQGISSWLAWYQQKPGKAPKLLIYAASSLQSGVPSRFSGSGSGTDFTLTISSLQPEDFATYYCQQANSFTFGPGTKVDIK
B5: antibody 333 (antibody, V domains shown)
VH: QVHLVESGGGVVLPGRSLRLSCSASQFIFSNYDMHWVRQSPGMGLEWVAGISSDGSDKYYIDSVRGRFTISRDNAKNTLFLQMNSLTTEDTAVYSCAKGGGKFGQYWGRGTLVTVSS
VL: AIQMTQSPSSLSASVGDRVTITCRASQVIRNDLAWFQQKPGEAPNLLVYSASNLQSGVPSRFSGSGSGTDFTLTISSLQPEDFATYYCLQDYSYPYTFGQGTKLDMK
B6: antibody 363 (antibody, V domains shown)
VH: EVQLLESGGGLVQPGGSLRLSCAASGFTFSTYAMSWVRQAPGKGLEWVSAISGSGGSTYYADSVKGRFTISRDNSKNTLYLQMNSLRAEDTAVYYCASGYSPDYWGQGTLVTVSS
VL: not shown
B7: antibody 585 (antibody, V domains shown)
VH: QVQLVESGGGVVQPGRSLRLSCAASGFTFATYAMHWVRQAPGKGLEWVALISHDGSNKHYADSVKGRFTISRDNSKKTLYLQMNSLRAEGTAIYYCARESLEAAAPPFDYWGQGTLVTVSS
VL: SYELTQPPSVSVSPGQTATIICSGDKLGEKYASWYQQKPGQSPALVIYQDRKRPSGIPERFSGSNSGNTATLTISGTQAMDEADYYCQAWDSSNSVVFGGGTKLTVP
B8: antibody 351 (antibody, V domains shown)
VH: HVQLVESGGGVVQPGRSLRLSCAASGFISRNYGMEWVRQAPGQGLEWVAGIWYDGSKKYYADSVKGRFTISRDTSKNTLFLQMDSLRAEDTAVFYCATATKTFCGGDCPPGGMDVWGQGTTVTVST
VL: SYVLTQPPSVSVAPGKTAWITCVGNNIESESVHWYQQRPGQAPVLVIYYDSDRPSGIPERFFGSNSGNTATLTISRVEAGDEADYYCQVWDSNSDLMVFGGGTKLTVL
B9: antibody 337 (antibody, V domains shown)
VH: QVQLVESGGGVVQPGRSLRLSCAASGFTFSSYGMHWVRQAPGKGLEWVAIIWYDGSNKYYADSVKGRFTISRDNSKNTLYLQMNSLRAEDTAVYYCAKDTGGYCSGGSCYPESYFDYWGQGTLVTVSS
VL: SYVLTQPPSVSVAPGKTARITCGGNNIGSKSVHWYQQKPGQAPVLVIYYDSDRPSGIPERFSGSNSGNTATLTINRVEAGDEADYYCQVWDGSSDHLYVFGTGTKVTVL
B10: antibody 329 (antibody, V domains shown)
VH: EVQLVESGGGLVQPGGSLRLSCAASGFTFSSYWMHWVRQAPGKGLVWVSRINSDGSSTSYADSVKGRFTISRDNAKNTLYLQMNSLRAEDTAVYYCAREGIVATITLDYWGQGTLVTVSS
VL: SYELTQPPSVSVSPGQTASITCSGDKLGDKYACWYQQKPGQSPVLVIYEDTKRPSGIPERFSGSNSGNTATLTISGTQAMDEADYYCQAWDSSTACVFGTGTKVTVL
B11: antibody 332 (antibody, V domains shown)
VH: QVTLRESGPALVKPTQTLTLTCTFSGFSLSTSGMCVSWIRQPPGKALEWLALIDWDDDKYYSTSLKTRLTISKDTSKNQVVLTMTNMDPVDTATYYCARIHDDILTGYHYVDYWGQGTLVTVSS
VL: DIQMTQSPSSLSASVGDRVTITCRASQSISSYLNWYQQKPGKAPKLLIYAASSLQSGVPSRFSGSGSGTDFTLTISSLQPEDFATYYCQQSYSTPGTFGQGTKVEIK
B12: antibody 343 (antibody, V domains shown)
VH: QVQLVESGGDVVQPGTSLRLSCAASGFTFNNYGFHWVRQAPGKGLEWVALISSDGASTHYADSVKGRFTISRDSSVNTLYLQMNSLSLEDTAVYYCATGHCGTTCYYFDYWGQGTLVSVSS
VL: DIQVTQSPSYLSASVGDRVTITCRASQTISTFLQWYQQKVGKAPKLLIYAASTLQSGVPSRFSGSGSGTDFSLTISSLQPEDFATYYCQQSYSAPLSFGGGTKVEIK
B13: antibody 348 (antibody, V domains shown)
VH: QVQLVQSGSELKKPGASVKVSCKASGYTFTSYAMNWVRQAPGQGLEWMGWINTNTGNPTYAQGFTGRFVFSLDTSVSTAYLQISSLKAEDTAVYYCARDHELPNTSSWFGHFEYWGQGTLVTVSS
VL: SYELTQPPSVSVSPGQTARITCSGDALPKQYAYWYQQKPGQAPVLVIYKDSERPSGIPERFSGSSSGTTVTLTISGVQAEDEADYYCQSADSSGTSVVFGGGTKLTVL
B14: antibody 367 (antibody, V domains shown)
VH: QVQLVQSGAEVKKPGASVKVSCKASGYTFTGYYIHWVRQAPGQGLEWMGWINPNSGGTIYAQKFQGRVTMTRDTSISTAYMELSRLTSDDTAVYSCAREPYYDILTGYYAPRRYFDYWGQGTLVTVSS
VL: QSALTQPASVSGSPGQSITISCTGTSSDVGSYNYVSWYLQHPGKAPKLMIYDVSNRPSGVSNRFSGSKSGNTASLTISGLQAEDEADFYCSSYTSRSTYVFGTGTKVTVL
B15: antibody 349 (antibody, V domains shown)
VH: EVQLVQSGAEVKKPGATVKISCKVSGYTFTDYYMHWVQQAPGKGLEWMGLVDPEDGETIYAEKFQGRVTITADTSTDTAYMELSSLRSEDTAVYYCATENKVPTIIAAAGTRDYYYYGMDVWGQGTTVTVSS
VL: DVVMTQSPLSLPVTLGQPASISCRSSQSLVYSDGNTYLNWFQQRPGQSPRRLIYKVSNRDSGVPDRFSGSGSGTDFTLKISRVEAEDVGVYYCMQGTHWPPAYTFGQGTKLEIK
B16: antibody 323 (antibody, V domains shown)
VH: QVQLVQSGAEVKKPGASVKVSCKVSGYTLTELSMHWVRQAPGKGLEWMGGFDPEDGETIYAQKFQGRVTMTEDTSTDTAYMELSSLRSEDTAVYYCATSTIFAPGGWFDPWGQGTLVTVSS
VL: QSALTQPASVSGSPGQSITISCTGTSSDVGSYNLVSWYQQHPGKAPKLMIYEVSKRPSGVSNRFSGSKSGNTASLTISGLQAEDEADYYCCSYAGSTHYVFGTGTKVTVL
B17: antibody 320 (antibody, V domains shown)
VH: QVQLVQSGAEVKKPGASVKVSCKASGYTFTSYGISWVRQAPGQGLEWMGWISAYNGNTNYAQKLQGRVTMTTDTSTRTAYMELRSLRSDDTAVYYCARVGCYYDSSGYSCAENFQHWGQGTLVTVSS
VL: QSVLTQPPSVSGAPGQRVTISCTGSSSNIGAGYDVHWYQQLPGTAPKLLIYGNSNRPSGVPDRFSGSKSGTSASLAITGLQAEDEADYYCQSYDSSLSALFGGGTKLTVL
B18: antibody 342 (antibody, V domains shown)
VH: EVQLVQSGAEVKKPGATVKISCKVSGYTFTDYYMHWVQQAPGKGLEWMGLVDPEDGETIYAEKFQGRVTITADTSTDTAYMELSSLRSEDTAVYYCATGGVSVWFREFPASYSGSYLGYWGQGTLVTVSS
VL: not shown
B19: antibody 324 (antibody, V domains shown)
VH: QVQLQESGPGLVKPSGTLSLTCAVSGGSISSSNWWSWVRQPPGKGLEWIGEIYHSGSTNYNPSLKSRVTISVDNSKNQFSLKLSSVTAADTAVYYCARESVAAAGISYYYYGMDVWGQGTTVTVSS
VL: EIVLTQSPGTLSLSPGERATLSCRASQSVSGRYLAWYQQKPGQAPRLLIYGASSRATGIPDRFSGSGSGTDFTLTISRLEPEDFAVYYCQHYGSSPGTFGQGTRLEIK
B20: antibody 328 (antibody, V domains shown)
VH: B19 VH
VL: DIQMTQSPSSLSASVGDRVTITCRASQGIRNDLGWYQQKPGKAPKRLIYAASSLQSGVPSRFSGSGSGTEFTLTVSGLQPEDFATYYCLQYNSSPLTFGGGTKVEIK
B21: antibody 562 (antibody, V domains shown)
VH: QVQLVESGGGVVQPGRSLRLSCAASGFTFSSYAMHWVRQAPGKGLEWVAVISYDGSNKYYADSVKGRFTISRDNSKNTLYLQMNSLRAEDTAVYYCARASSGGYQGPFDPWGQGTLVTVSS
VL: QSALTQPASVSGSPGQSITISCTGTSSDVGGYNYVSWYQQHPGKAPKLMIYDVSNRPSGVSNRFSGSKSGNTASLTISGLQAEDEADYYCSSYTSSSTLLYVFGTGTKVTVLG
B22: antibody 345 (antibody, V domains shown)
VH: QVQLQESGPGLVKPSQTLSLTCTVSGGSISSGDYYWSWIRQPPGKGLEWIGYIYYSGSTYYNPSLKSRVTISVDTSKNQFSLKLSSVTAADTAVYYCARVGMVDNWNFEGNWFDPWGQGTLVTVSS
VL: QSALTQPRSVSGSPGQSVTISCTGTSSDVGGYNYVSWYQQHPGKAPKLMIYDVSKRPSGVPDRFSGSKSGNTASLTISGLQAEDEADYYCCSYAGSVVFGGGTKLTVL
B23: antibody 340 (antibody, V domains shown)
VH: QVQLVQSGAEVKKPGASVKVSCKASGYTFTSYDINWVRQATGQGLEWMGWMNPNSGNTGYAQKFQGRVTMTRNTSISTAYMELSSLRSEDTAVYYCARGRYCTGGVCWGDWYFDLWGRGTLVTVSS
VL: QSVLTQPPSVSGAPGQRVTISCTGSSSNIGAGYDVHWYQQLPGTAPKFLIYGNSNRPSGVPDRFSGSKSGTSASLAITGLQAEDEADYYCQSYDSSLSGPVFGGGTKLTVL

Key:
SARS-CoV spike protein = SARS-CoV spike protein (SARS-CoV, UniProt P59594 14-1190)
SARS-CoV-2 spike protein = target: T1, SARS-CoV-2 spike protein (SARS-CoV-2, UniProt P0DTC2 14-1208); experiment: HT-SPR, Carterra LSA; mAb coupled to chip, antigen injected; 1:1 fit
T1 construct: also called SARS-CoV-2 S protein; antigen of interest

Binder | median fluorescence intensity, fold over isotype control (SARS-CoV spike protein) | also measured
B1 | 1.34 fold over isotype | 
B2 | 1.09 fold over isotype | 
B3 | 1.27 fold over isotype | 
B4 | 1.23 fold over isotype | 
B5 | 1.21 fold over isotype | 
B6 | 1.09 fold over isotype | 
B7 |  | Kd (SARS-CoV-2 spike protein): 0.248 nM; koff (SARS-CoV-2 spike protein): 4.59e-05 s⁻¹; kon (SARS-CoV-2 spike protein): 185000 M⁻¹ s⁻¹
B8 | 1.08 fold over isotype | 
B9 | 439 fold over isotype | 
B10 | 2.46 fold over isotype | 
B11 | 0.99 fold over isotype | 
B12 | 1.19 fold over isotype | 
B13 | 1.16 fold over isotype | 
B14 | 1.08 fold over isotype | 
B15 | 1.12 fold over isotype | 
B16 | 1.29 fold over isotype | 
B17 | 989 fold over isotype | 
B18 | 1.16 fold over isotype | 
B19 | 1.14 fold over isotype | 
B20 | 1.22 fold over isotype | 
B21 |  | Kd (SARS-CoV-2 spike protein): 0.0211 nM; koff (SARS-CoV-2 spike protein): 1.16e-05 s⁻¹; kon (SARS-CoV-2 spike protein): 548000 M⁻¹ s⁻¹
B22 | 1.09 fold over isotype | 
B23 | 1.26 fold over isotype | 
